Source: EP0888374B1

Molecular target: Complement System Protein C1q (UniProt P02745)
Assay: cell-based or functional assay

Chain of UniProt P02745 (P02745 23-245, chain 1 of 3): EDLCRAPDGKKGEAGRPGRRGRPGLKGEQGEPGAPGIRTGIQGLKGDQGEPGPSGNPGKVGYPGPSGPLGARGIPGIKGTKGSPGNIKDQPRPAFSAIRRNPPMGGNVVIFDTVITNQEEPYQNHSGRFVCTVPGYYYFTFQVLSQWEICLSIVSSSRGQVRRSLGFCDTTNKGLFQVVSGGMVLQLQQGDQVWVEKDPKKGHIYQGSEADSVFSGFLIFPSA
Chain of UniProt P02745 (P02746 28-253, chain 2 of 3, further chain): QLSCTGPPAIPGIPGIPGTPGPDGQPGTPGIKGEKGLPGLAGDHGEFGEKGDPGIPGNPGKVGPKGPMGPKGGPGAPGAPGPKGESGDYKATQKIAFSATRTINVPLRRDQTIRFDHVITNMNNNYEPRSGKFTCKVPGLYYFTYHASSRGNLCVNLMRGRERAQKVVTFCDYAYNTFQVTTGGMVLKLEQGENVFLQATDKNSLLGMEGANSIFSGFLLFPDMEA
Chain of UniProt P02745 (P02747 29-245, chain 3 of 3, further chain): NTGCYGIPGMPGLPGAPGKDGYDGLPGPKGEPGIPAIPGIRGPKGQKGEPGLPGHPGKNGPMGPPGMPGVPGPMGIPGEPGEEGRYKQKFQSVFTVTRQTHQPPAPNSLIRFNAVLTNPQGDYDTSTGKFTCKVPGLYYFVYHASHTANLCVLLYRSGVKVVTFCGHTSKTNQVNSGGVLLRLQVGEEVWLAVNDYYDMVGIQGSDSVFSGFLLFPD

[4d] µg (Class.): 8 µg
Substance: BSA-anti-BSA Immune Complexes (from UniProt P02769 25-607)
